Results on 1 molecule are retold here after patent publication EP4818209A2 (Primatope Therapeutics Inc., dated 2026).

Some results are limits rather than exact numbers.

For the assay, the target named is T1, recombinant human CD40 (human, UniProt P25942 21-120, limits assumed).
T1 construct: biotinylated there; also called hCD40; purified CD40
Nature of the assay: binding kinetics to human CD40.

T1 sequence (P25942 21-120 limits assumed): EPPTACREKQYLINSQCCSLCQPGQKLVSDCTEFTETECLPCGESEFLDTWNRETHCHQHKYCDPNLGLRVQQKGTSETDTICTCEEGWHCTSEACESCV

B1: humanized 2C10 antibody, Clone 2.189.2 (2C10_h3 + 2C10_l2) (antibody, V domains shown)
VH: QVQLVQSGAEVKKPGASVKVSCKASGYTFTNYWMHWVRQAPGQRLEWIGYINPSNDYTKYNQKFKDRATLTADKSANTAYMELSSLRSEDTAVYYCARQGFPYWGQGTLVTVSS
VL: EIVLTQSPATLSLSPGERATLSCSASSSVSYMHWYQQKPGQAPRRWIYDTSKLASGVPARFSGSGSGTDYTLTISSLEPEDFAVYYCHQLSSDPFTFGGGTKVEIK
notes: also called h2C10; mAb 2.189.2
For B1, the “fold difference of affinity against murine 2C10” value is not above 2 fold.
